Assay results published in patent publication US20230381350A1 (PRECIRIX N V, published 2023).
Positions count from the first letter of the chain named. Names and notes keep the numbering of the source.

What was measured:
[1] = molecular target: T1, human DPP IV recombinant protein (human, UniProt P27487 29-766); assay: ELISA, coated human DPP IV, HA-His6-tagged VHH extract, anti-HA detection
T1 construct: extracellular domain; Bought protein; also called Dipeptidyl amino-peptidase IV
Description: (§1) The day before measurement, 0.1 μg recombinant protein at a concentration of 1 μg/mL in 100 mM NaHCO₃, pH 8.2 was coated in a 96-well ELISA plate (Nunc MaxiSorp). Per VHH clone also a blank coated well was foreseen (only buffer). The wells were overcoated with protein-free T20 (PBS) blocking buffer (Pierce). After washing with PBS, pH7.4, 0.05% Tween, VHH-containing bacterial freeze-thaw extract was added to every well. Binding of HA-His₆-tagged VHHs was detected by using mouse anti-HA.11 epitope tag (clone 16B12, Biolegend) as the primary Ab and goat anti-mouse IgG (whole molecule) alkaline phosphatase conjugate (Sigma-Aldrich) as the secondary Ab, with thorough washing with PBS, pH 7.4, 0.05% Tween in between. Signals were developed using phosphatase substrate (Sigma-Aldrich) in AP blot buffer (100 mM NaCl, 50 mM MgCl₂, 100 mM Tris, pH 9.5). The absorbance was determined at 405 nm using an absorbance microplate reader (Molecular Devices). Per clone the ratio was determined between the absorbance in the antigen-coated well versus the well without antigen.

[2] = molecular target: T2, human FAP recombinant protein (human, UniProt Q12884 26-760); assay: ELISA, coated human FAP recombinant protein, HA-His6-tagged VHH extract, anti-HA detection
T2 construct: The protein was biotinylated with sulfo-NHS-SS-biotin for bio-layer interferometry; also called extracellular domain of human FAP with N-terminal His6-tag
T2 sequence: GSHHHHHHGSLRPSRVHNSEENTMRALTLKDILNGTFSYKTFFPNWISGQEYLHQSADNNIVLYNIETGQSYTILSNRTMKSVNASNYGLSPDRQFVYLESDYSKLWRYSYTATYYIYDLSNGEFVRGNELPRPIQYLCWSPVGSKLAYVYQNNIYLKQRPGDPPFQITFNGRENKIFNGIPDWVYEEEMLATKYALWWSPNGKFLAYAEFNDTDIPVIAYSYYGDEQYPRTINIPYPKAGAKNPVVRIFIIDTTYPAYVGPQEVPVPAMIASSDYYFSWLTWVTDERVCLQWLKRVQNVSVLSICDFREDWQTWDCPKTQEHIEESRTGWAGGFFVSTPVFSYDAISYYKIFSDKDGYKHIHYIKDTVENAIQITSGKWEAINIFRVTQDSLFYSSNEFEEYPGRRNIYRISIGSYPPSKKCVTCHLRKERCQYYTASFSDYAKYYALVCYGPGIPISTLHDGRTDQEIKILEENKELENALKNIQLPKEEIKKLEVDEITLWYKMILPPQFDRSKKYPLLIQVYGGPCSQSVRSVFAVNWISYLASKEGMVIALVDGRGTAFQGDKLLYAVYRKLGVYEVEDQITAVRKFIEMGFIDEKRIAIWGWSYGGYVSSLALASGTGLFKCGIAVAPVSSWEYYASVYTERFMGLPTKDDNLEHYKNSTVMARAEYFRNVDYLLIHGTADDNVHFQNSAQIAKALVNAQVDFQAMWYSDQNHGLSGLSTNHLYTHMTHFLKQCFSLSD
Description: as §1

[3] = molecular target: T1, human DPP IV recombinant protein; assay: ELISA on coated recombinant protein, VHH-containing bacterial extract, anti-HA detection, signal-to-background ratio
Description: as §1

[4] = molecular target: T3, human FAP expressed on cells (human, UniProt Q12884 1-760); assay: saturation binding of 99mTc-labelled VHH on human FAP-expressing GM05389 cells (mean ± SD, n = 3)
T3 construct: also called human FAP cell surface protein; human FAP receptor
T3 sequence: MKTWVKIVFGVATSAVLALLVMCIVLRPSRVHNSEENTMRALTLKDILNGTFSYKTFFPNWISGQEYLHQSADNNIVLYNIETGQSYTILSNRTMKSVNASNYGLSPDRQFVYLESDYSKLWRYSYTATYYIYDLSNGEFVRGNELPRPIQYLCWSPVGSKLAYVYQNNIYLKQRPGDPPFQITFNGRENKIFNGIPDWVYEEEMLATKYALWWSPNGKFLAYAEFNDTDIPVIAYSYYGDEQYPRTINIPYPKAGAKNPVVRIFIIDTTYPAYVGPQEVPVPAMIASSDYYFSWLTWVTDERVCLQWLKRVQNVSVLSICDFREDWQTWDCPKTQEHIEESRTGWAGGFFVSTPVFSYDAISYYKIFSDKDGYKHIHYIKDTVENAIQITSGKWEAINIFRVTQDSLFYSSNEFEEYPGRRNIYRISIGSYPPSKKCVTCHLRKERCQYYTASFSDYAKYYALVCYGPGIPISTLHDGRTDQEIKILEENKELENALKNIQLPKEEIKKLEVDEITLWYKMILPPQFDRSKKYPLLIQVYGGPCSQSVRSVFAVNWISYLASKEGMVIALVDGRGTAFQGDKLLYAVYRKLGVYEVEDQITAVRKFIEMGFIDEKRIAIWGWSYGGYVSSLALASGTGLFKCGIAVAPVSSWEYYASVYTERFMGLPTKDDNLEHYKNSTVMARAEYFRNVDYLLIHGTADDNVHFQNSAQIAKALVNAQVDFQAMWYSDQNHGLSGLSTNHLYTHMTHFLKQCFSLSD
Description: (§2) Next, we describe the in vitro and in vivo human and murine FAP binding potential of different VHHs after radiolabelling with the diagnostic radioisotope ^99mTc. […] His₆-tagged human/murine FAP-targeting VHHs were radiolabelled with the diagnostic radioisotope ^99mTc, according to the radiochemical procedure described in Example 3.
(§3) Next, the different cell lines were incubated with serial dilutions with concentrations ranging from 0 to 300 nM of the different ^99mTc-labelled His₆-tagged VHHs. A 100-fold excess of the corresponding unlabeled VHH was added in parallel to saturate the human or murine FAP proteins on the cancer cell surface, to assess non-specific binding. The resulting EC50 values for each of the VHHs are depicted in Table 8. […] We confirmed that ^99mTc-labeled VHH B4 only binds murine FAP cell surface protein, while VHH B3 only binds human FAP cell surface molecules in vitro.

[5] = molecular target: T3, human FAP expressed on cells; assay: saturation binding of 99mTc-labelled VHH on human FAP-expressing HEK-293 cells (mean ± SD, n = 3)
Description: as §2, §3

[6] = molecular target: T4, murine FAP expressed on cells (murine, UniProt P97321 1-761); assay: saturation binding of 99mTc-labelled VHH on murine FAP-expressing HEK-293 cells (mean ± SD, n = 3)
T4 construct: also called murine FAP cell surface protein
T4 sequence: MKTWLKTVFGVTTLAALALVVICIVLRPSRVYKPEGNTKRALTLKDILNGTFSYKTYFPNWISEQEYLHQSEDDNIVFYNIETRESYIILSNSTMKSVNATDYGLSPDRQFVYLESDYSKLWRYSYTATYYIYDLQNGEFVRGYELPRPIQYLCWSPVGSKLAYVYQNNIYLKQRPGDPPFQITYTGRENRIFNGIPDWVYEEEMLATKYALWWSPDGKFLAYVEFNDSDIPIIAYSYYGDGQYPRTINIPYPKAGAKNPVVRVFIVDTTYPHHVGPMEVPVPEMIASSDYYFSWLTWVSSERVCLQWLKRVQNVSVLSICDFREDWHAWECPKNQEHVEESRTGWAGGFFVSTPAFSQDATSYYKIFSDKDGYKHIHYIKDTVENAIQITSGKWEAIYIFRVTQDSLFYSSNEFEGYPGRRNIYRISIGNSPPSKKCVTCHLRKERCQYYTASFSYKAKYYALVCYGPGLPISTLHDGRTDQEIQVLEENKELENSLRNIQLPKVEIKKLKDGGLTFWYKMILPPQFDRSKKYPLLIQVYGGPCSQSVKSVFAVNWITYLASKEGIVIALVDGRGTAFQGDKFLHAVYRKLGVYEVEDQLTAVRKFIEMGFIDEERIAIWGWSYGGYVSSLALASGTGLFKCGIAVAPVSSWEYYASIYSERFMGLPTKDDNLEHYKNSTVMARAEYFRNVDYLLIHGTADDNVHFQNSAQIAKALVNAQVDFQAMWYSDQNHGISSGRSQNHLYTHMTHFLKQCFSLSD
Description: as §2, §3

[7] = molecular target: T5, murine FAP recombinant protein (murine, UniProt P97321 26-761); assay: bio-layer interferometry (Octet RED96), biotinylated murine FAP on streptavidin sensor, kinetic titration, 25 °C
T5 construct: The protein was biotinylated for bio-layer interferometry; also called extracellular domain of murine FAP with N-terminal His6-tag
T5 sequence: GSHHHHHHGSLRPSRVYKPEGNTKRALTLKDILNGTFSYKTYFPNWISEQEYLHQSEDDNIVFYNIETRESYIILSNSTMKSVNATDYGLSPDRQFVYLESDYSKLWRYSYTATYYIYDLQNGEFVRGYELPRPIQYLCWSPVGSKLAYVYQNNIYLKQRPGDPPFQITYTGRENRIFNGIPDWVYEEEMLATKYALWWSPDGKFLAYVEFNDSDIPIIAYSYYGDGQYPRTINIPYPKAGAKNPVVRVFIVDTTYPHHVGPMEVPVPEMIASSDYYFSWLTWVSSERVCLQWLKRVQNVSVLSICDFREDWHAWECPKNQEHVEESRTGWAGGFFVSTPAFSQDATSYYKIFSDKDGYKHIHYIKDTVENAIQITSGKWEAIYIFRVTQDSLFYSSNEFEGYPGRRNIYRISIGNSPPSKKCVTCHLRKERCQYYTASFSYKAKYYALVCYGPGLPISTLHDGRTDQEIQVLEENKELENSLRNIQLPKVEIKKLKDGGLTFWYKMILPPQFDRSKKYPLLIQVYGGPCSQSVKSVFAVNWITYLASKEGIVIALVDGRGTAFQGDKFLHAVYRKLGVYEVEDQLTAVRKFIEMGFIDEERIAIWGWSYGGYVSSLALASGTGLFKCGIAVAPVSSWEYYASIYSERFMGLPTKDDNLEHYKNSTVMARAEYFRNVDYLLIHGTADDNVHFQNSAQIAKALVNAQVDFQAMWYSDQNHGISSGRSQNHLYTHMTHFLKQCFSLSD
Description: (§4) The kinetic parameters of antigen binding by purified VHHs were determined via bio-layer interferometry with an Octet RED96 instrument (ForteBio). The assay was performed at 25° C. with shaking at 1000 rpm. Streptavidin coated SA sensors were equilibrated in assay buffer (HBS supplemented with 0.5% BSA, 0.1% Tween), before loading for 5 min with the biotinylated FAP recombinant protein at a concentration of 5 μg/ml. His₆-tagged VHHs were analyzed in a threefold serial dilution from 30 nM to 0.4 nM in assay buffer (except for VHH B3 binding murine FAP recombinant protein, for which a fivefold serial dilution from 1000 nM to 1.6 nM was employed). First the baseline was measured for 180 s in assay buffer, followed by 5 subsequent association phases of 180 s with the VHH preparations in increasing order of concentration, with 75 s intermediate dissociation phases in assay buffer in between, and a final dissociation phase in assay buffer of 30 min. In every assay a reference sensor loaded with FAP recombinant protein was included that was incubated in assay buffer during the association phases.
(§5) Binding curves were exported and analyzed using the BIAevaluation analysis software (GE Healthcare). First the y-axes of the different curves were aligned to the median of the last 5 s of the baseline measurement. Subsequently, the sensorgram of the reference sensor was subtracted from all other sensorgrams. The resulting binding curve was fitted using a general fit with the ‘kinetic titration with drift’ binding model (1:1 (antigen:analyte) model; Karlsson, R. et al (2006), Analyzing a kinetic titration series using affinity biosensors. Analytical Biochemistry 349: 136-147), with Rmax fitted global, RI local and drift set to 0.
(§6) Table 7 gives an overview of the kinetic parameters of antigen binding for His₆-tagged VHHs B1, B2, B3 and B4 (SEQ ID NO: 21-24), as determined by bio-layer interferometry with biotinylated human or murine FAP recombinant protein that was loaded on the sensor.

[8] = molecular target: T2, human FAP recombinant protein; assay: bio-layer interferometry (Octet RED96), biotinylated human FAP on streptavidin sensor, kinetic titration, 25 °C
Description: as §4, §5, §6

T1 sequence (P27487 29-766): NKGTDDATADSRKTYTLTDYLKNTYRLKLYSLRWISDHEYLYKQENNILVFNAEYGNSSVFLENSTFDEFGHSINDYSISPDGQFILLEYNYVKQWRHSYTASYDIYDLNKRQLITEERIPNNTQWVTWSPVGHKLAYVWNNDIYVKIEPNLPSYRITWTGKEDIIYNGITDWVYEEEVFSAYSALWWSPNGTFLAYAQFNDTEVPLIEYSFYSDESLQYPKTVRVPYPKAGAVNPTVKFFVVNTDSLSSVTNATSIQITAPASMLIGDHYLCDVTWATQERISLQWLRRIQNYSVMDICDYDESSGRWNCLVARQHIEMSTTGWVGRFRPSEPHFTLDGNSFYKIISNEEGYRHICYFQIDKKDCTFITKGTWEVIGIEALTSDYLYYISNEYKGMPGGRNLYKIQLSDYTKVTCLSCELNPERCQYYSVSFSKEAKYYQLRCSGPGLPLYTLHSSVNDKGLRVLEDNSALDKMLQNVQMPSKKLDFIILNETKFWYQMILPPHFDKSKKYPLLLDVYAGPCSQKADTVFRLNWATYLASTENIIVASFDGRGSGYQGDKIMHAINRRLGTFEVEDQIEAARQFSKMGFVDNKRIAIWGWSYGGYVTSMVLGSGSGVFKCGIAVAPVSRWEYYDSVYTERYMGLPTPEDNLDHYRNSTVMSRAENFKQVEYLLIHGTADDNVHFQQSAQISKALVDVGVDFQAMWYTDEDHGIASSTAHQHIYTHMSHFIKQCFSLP

B1: HA-His6-tagged VHH B1 (VHH)
VHH: QVQLQESGGGLVQPGGSLRLSCVASGRLSSSNSMAWYRQVPGKRRELVAGITGGGETNYADFVGGRFTISRDNAKNGLYLQLNGLKPEDTAAYYCNFWPPLINYWGQGTQVTVSS
notes: Used as bacterial freeze-thaw extract in ELISA and flow cytometry, and at 1 µM in the enzyme assay; also called B1 with HA-His6-tag
signal-to-background ratio [1]: ~1
signal-to-background ratio [2]: > 25
binding result [3]: no binding

B2: 99mTc-labeled His6-tagged VHH B1 (VHH)
VHH: B1 VHH with Q1D, Q5V
modifications: [99mTc(H2O)3(CO)3] complexed at the His6-tag
notes: also called 99mTc-B1
EC50 [4]: 0.5 nM
EC50 [5]: 0.6 nM
EC50 [6]: 5.8 nM

B3: His6-tagged VHH B4 (VHH)
VHH: DVQLVESGGGLVQVGGSLRLSCVASGFTFSSYYMSWVRQAPGKGLEWVASIYADGDMTYYADSVRGRFTISRDNAKNTLYLQMNSLKSEDTAVYYCAKDPLPPYHVNQGTQVTVSS
notes: Purified, unlabelled; used in bio-layer interferometry; also called B4 with His6-tag
Kd [7]: 0.512 nM
koff [7]: 0.00056 s⁻¹
kon [7]: 1.1e+06 M⁻¹ s⁻¹

B4: His6-tagged VHH B2 (VHH)
VHH: DVQLVESGGGLVQAGGSLRLSCAVSGSISSANSMGWYRQAPGKQRDVVAGLTTGGRSHYADSVKGRFTISRDNAKNTVYLQMNSLKAEDTAVYYCNLWPPVQGYWGQGTQVTVSS
notes: Purified, unlabelled; used in bio-layer interferometry; also called B2 with His6-tag
Kd [8]: 0.0744 nM
koff [8]: 3.1e-05 s⁻¹
kon [8]: 420000 M⁻¹ s⁻¹
Kd [7]: 24.3 nM
koff [7]: 0.0082 s⁻¹
kon [7]: 340000 M⁻¹ s⁻¹

B5: 99mTc-labeled His6-tagged VHH B2 (VHH)
VHH: B4 VHH
modifications: [99mTc(H2O)3(CO)3] complexed at the His6-tag
notes: also called 99mTc-B2
EC50 [4]: 3.2 nM
EC50 [5]: 13 nM
EC50 [6]: 139 nM
